Test results taken from US20200399712A1, “COMPOSITIONS AND METHODS FOR THE DIAGNOSIS AND DETECTION OF TUMORS AND CANCER PROGNOSIS” (priority 2018, published 2020).
Entries after “also recorded” stand apart in the source; their conditions may differ. Marks after values point to notes of the source that are not given here.

Columns and labels:
HPV-16 genome = experiment: qPCR sensitivity against HPV-16 copy number (known-copy HPV-16 DNA among 10 ng normal human DNA)
From the text: (§1) All samples were run in triplicates.
To seek the most promising primer-probe set in the viewpoint of sensitivity, Applicants evaluated the sensitivity analysis for these candidate primer-probe sets. […] Therefore, the sensitivity of E6 (FIG. 3A) and E7 (FIG. 3B) was also 30 copies. […] The candidate primer-probe sets were the “Min-4” (FIG. 3C), “Min-5” (FIG. 3D), “Min-6” (FIG. 3E), “Max-10” (FIG. 3F), “E6-11” (FIG. 3G), “E6-13” (FIG. 3H), respectively.
In addition, Applicants performed sensitivity analysis to identify the most sensitive primer/probe set from among the candidate sets.
To validate the function of primer/probe sets, Applicants calculated the slope of delta Rn against cycle threshold for HPV-16 copy number detection from defined HPV copy number DNA derived from CaSki cell line.

HPV-16 [1] = experiment: qPCR on 20 ng DNA from saliva samples of HPV-HNSCC patients; conditions: 28 HPV-HNSCC saliva samples
Protocol: as §1
The sensitivity of detection from saliva 20 ng DNA samples is 32.1% (9/28) in E6 primer-probe sets, 42.9% (12/28) in E7 primer-probe sets, 35.7% (10/28) in “Min-5” primer-probe sets, 46.4% (13/28) in “Max-10” primer-probe sets. The sensitivity of combination of “5” and “10” is 50% (14/28) and that of E6 and E7 is 42.9% (12/28). By the standard curve analysis, the copy numbers that detected by “Max-10” primer-probe sets were the highest in these 4 primer-probe sets. The slope of standard curve is −3.5 in “Min-5” primer-probe sets when delta Rn is plotted against cycle threshold (FIG. 5).

HPV16 DNA [2] = experiment: CLIA test for HPV16, performance characteristics in plasma
From the text: (§2) These primer/probe sets were adapted for development of a CLIA test for HPV16 DNA detection in plasma and salivary rinses (Table 2). Test performance was improved, so that analytical sensitivity in salivary rinse spike in assays ranges from 2.5-5.0 DNA copies/mL with 100% specificity for the three primer/probe sets that are now part of the component assay, resulting in a five-fold improvement in analytic sensitivity that is in the range of sensitivity found in sequence based liquid biopsy methods (FIG. 23, Table 2). Additionally, the assays can be used quantitatively, with measuring ranges between 2.0 log10-7.0 log10 copies/mL.

HPV16 DNA [3] = experiment: CLIA test for HPV16, performance characteristics in salivary rinse
From the text: as §2

HPV DNA = experiment: CLIA HPV test pilot study on saliva rinse samples from HPV-positive HNSCC patients and non-cancer controls; set-up: species or system HPV16; HPV16 DNA measured by CLIA HPV test: unit not given here
Protocol: As a final validation, Applicants a small pilot study was performed on a blinded set of saliva rinse samples from 28 patients with HPV-positive HNSCC and 15 salivary rinses from non-cancer controls. […] The sensitivity increased to 96% when all three sets were used (Table 3).

HPV-16 [4] = experiment: qPCR sensitivity against HPV-HNSCC tumor samples diluted among 10 ng normal human DNA
Protocol: Quantitative real-time polymerase chain reaction (qRT-PCR) was used to examine the threshold in each experiment. qRT-PCR was performed using Quant Studio 6 Flex Real-Time PCR System (Thermo Fisher Scientific). All samples were run in triplicates. HPV-16 viral amplicon copy number estimations were developed using the CaSki cell line. After amplification of the amplicon by PCR, DNA concentration was calculated by weight NanoDrop®, then converted to DNA copy number by calculation based on the molecular weight of the double stranded amplicon. […] In the other 32 HPV-HNSCC cohort, Applicants diluted the tumor sample to 990 pg, 198 pg, 99 pg, 39.6 pg, 7.9 pg, 3.2 pg, and 1.6 pg of amount tumor weight, (correspond to 150, 30, 15, 6, 1.2, 0.6, and 0.3 cells: assumption that 1 tumor cell have 6.6 pg DNA (=3*10^9 (human DNA genome bp)*2 (diploid)*1.67*10^(−24) g (weight/Dalton))) combined with 10 ng normal leukocyte human DNA and compare the threshold of each primer-probe sets.
In this regard, Applicants investigated the other 32 HPV-HNSCC tumor samples. From the assumption that 1 cell tumor DNA contain 6.6 pg DNA, Applicants made the dilution series by DNA derived from normal lymphocyte as described and decide the threshold for each primer-probe set.
Furthermore, to determine whether these designed primer/probe sets also have a high sensitivity in a separate cohort, Applicants performed PCR in a validation cohort of 32 additional primary tumor samples with validated presence of HPV-16. Applicants prepared serial of dilutions of tumor DNA in normal lymphocyte DNA from non-cancer individuals and determined the threshold for each primer/probe set and defined amplification thresholds expressed in number of tumor cells for each sample (Table 5).

[5] = among 10 ng normal DNA, triplicate qPCR
[6] = samples tested 3 times, 10 ng DNA from healthy individual
[7] = first template ('... HPV16', word is an image)
[8] = second template (name is an image)
[9] = tumor DNA dilution, fraction of 32 samples

B1: E7: previously designed (historical) HPV-16 E7 primers and Taqman probe, SEQ ID NO: 10-12; part of CLIA test (nucleic acid)
DNA 1: CCGGACAGAGCCCATTACAA
DNA 2: CGAATGTCTACGTGTGTGCTTTG
DNA 3: CGCACAACCGAAGCGTAGAGTCACACT
modifications: Taqman probe, labels not given here
notes: part of CLIA test
sensitivity (HPV-16 copies) (HPV-16 genome; HPV-16 genome among normal 10 ng DNA samples, consistent triplicate reaction): 30 copies
reaction under 10 copies of HPV-16 genome (HPV-16 genome; [5]): reacted inconsistently
reaction under 30 copies of HPV-16 genome (HPV-16 genome; [5]): reacted consistently triplicate; also recorded: reacted consistently in triplicates
number of reactions against 10 HPV-16 copies (HPV-16 genome; [6]): 2 reactions
number of reactions under 30 HPV-16 copies (HPV-16 genome; [6]): 3 reactions
sensitivity of detection from saliva 20 ng DNA samples (HPV-16 [1]): 42.9%
Accuracy - Plasma Blind Panel, Negative % Agreement (HPV16 DNA [2]): 90%
Accuracy - Plasma Blind Panel, Positive % Agreement (HPV16 DNA [2]): 100%
Accuracy - Plasma Blind Panel, Total % Agreement (HPV16 DNA [2]): 97%
Measuring Range - Plasma (HPV16 DNA [2]; first template ('... HPV16')): 2.0-8.5 log10 log10 copies/mL
Limit of Detection - Plasma (HPV16 DNA [2]; [7]): 1.5 copies/mL
Limit of Detection - Plasma (HPV16 DNA [2]; [8]): 13 copies/mL
Measuring Range - Plasma (HPV16 DNA [2]; [8]): 2.0-5.0 log10 log10 copies/mL
Measuring Range - Salivary Rinse (HPV16 DNA [3]; first template ('... HPV16')): 2.0-8.5 log10 log10 copies/mL
Limit of Detection - Salivary rinse (HPV16 DNA [3]; [7]): 3 copies/mL
Limit of Detection - Salivary rinse (HPV16 DNA [3]; [8]): 23 copies/mL
Measuring Range - Salivary Rinse (HPV16 DNA [3]; [8]): 2.0-6.5 log10 log10 copies/mL
sensitivity for the detection of HPV DNA in saliva rinse samples (HPV DNA; 28 patients with HPV-positive HNSCC): 82%
HPV16 DNA measured by CLIA HPV test (HPV DNA; saliva sample from HPV-HNSCC patient # 1): 328000
HPV16 DNA measured by CLIA HPV test (HPV DNA; saliva sample from HPV-HNSCC patient # 2): 50000
HPV16 DNA measured by CLIA HPV test (HPV DNA; saliva sample from HPV-HNSCC patient # 3): 48500
HPV16 DNA measured by CLIA HPV test (HPV DNA; saliva sample from HPV-HNSCC patient # 4): 46500
HPV16 DNA measured by CLIA HPV test (HPV DNA; saliva sample from HPV-HNSCC patient # 5): 14700
HPV16 DNA measured by CLIA HPV test (HPV DNA; saliva sample from HPV-HNSCC patient # 6): 7320
HPV16 DNA measured by CLIA HPV test (HPV DNA; saliva sample from HPV-HNSCC patient # 7): 4950
HPV16 DNA measured by CLIA HPV test (HPV DNA; saliva sample from HPV-HNSCC patient # 8): 1570
HPV16 DNA measured by CLIA HPV test (HPV DNA; saliva sample from HPV-HNSCC patient # 9): 1020
HPV16 DNA measured by CLIA HPV test (HPV DNA; saliva sample from HPV-HNSCC patient # 10): 981
HPV16 DNA measured by CLIA HPV test (HPV DNA; saliva sample from HPV-HNSCC patient # 11): 521
HPV16 DNA measured by CLIA HPV test (HPV DNA; saliva sample from HPV-HNSCC patient # 12): 155
HPV16 DNA measured by CLIA HPV test (HPV DNA; saliva sample from HPV-HNSCC patient # 13): 140
HPV16 DNA measured by CLIA HPV test (HPV DNA; saliva sample from HPV-HNSCC patient # 14): 82.7
HPV16 DNA measured by CLIA HPV test (HPV DNA; saliva sample from HPV-HNSCC patient # 15): 62.6
HPV16 DNA measured by CLIA HPV test (HPV DNA; saliva sample from HPV-HNSCC patient # 16): 41.2
HPV16 DNA measured by CLIA HPV test (HPV DNA; saliva sample from HPV-HNSCC patient # 17): 14.1
HPV16 DNA measured by CLIA HPV test (HPV DNA; saliva sample from HPV-HNSCC patient # 18): 9.69
HPV16 DNA measured by CLIA HPV test (HPV DNA; saliva sample from HPV-HNSCC patient # 19): 8.17
HPV16 DNA measured by CLIA HPV test (HPV DNA; saliva sample from HPV-HNSCC patient # 20): 6.5
HPV16 DNA measured by CLIA HPV test (HPV DNA; saliva sample from HPV-HNSCC patient # 21): 4.02
HPV16 DNA measured by CLIA HPV test (HPV DNA; saliva sample from HPV-HNSCC patient # 22): 2.52
HPV16 DNA measured by CLIA HPV test (HPV DNA; saliva sample from HPV-HNSCC patient # 23): 0.986
sensitivity under 100 cells (HPV-16 [4]; 32 HPV-HNSCC tumor samples): 96.9%
sensitivity under single cells (HPV-16 [4]; 32 HPV-HNSCC tumor samples, 6.6 pg DNA): 9.4%
sensitivity under 10 cells (HPV-16 [4]; 32 HPV-HNSCC tumor samples, 66 pg DNA): 68.8%
Threshold of tumor cell numbers for HPV-16 detection (HPV-16 [4]; Sample # 1): 60.0 tumor cells
Threshold of tumor cell numbers for HPV-16 detection (HPV-16 [4]; Sample # 2): 30.0 tumor cells
Threshold of tumor cell numbers for HPV-16 detection (HPV-16 [4]; Sample # 3): 30.0 tumor cells
Threshold of tumor cell numbers for HPV-16 detection (HPV-16 [4]; Sample # 4): 150.0 tumor cells
Threshold of tumor cell numbers for HPV-16 detection (HPV-16 [4]; Sample # 5): 6.0 tumor cells
Threshold of tumor cell numbers for HPV-16 detection (HPV-16 [4]; Sample # 6): 6.0 tumor cells
Threshold of tumor cell numbers for HPV-16 detection (HPV-16 [4]; Sample # 7): 30.0 tumor cells
Threshold of tumor cell numbers for HPV-16 detection (HPV-16 [4]; Sample # 8): 15.0 tumor cells
Threshold of tumor cell numbers for HPV-16 detection (HPV-16 [4]; Sample # 9): 30.0 tumor cells
Threshold of tumor cell numbers for HPV-16 detection (HPV-16 [4]; Sample # 10): 6.0 tumor cells
Threshold of tumor cell numbers for HPV-16 detection (HPV-16 [4]; Sample # 11): 6.0 tumor cells
Threshold of tumor cell numbers for HPV-16 detection (HPV-16 [4]; Sample # 12): 30.0 tumor cells
Threshold of tumor cell numbers for HPV-16 detection (HPV-16 [4]; Sample # 13): 6.0 tumor cells
Threshold of tumor cell numbers for HPV-16 detection (HPV-16 [4]; Sample # 14): 6.0 tumor cells
Threshold of tumor cell numbers for HPV-16 detection (HPV-16 [4]; Sample # 15): 6.0 tumor cells
Threshold of tumor cell numbers for HPV-16 detection (HPV-16 [4]; Sample # 16): 6.0 tumor cells
Threshold of tumor cell numbers for HPV-16 detection (HPV-16 [4]; Sample # 17): 1.2 tumor cells
Threshold of tumor cell numbers for HPV-16 detection (HPV-16 [4]; Sample # 18): 6.0 tumor cells
Threshold of tumor cell numbers for HPV-16 detection (HPV-16 [4]; Sample # 19): 1.2 tumor cells
Threshold of tumor cell numbers for HPV-16 detection (HPV-16 [4]; Sample # 20): 1.2 tumor cells
Threshold of tumor cell numbers for HPV-16 detection (HPV-16 [4]; Sample # 21): 1.2 tumor cells
Threshold of tumor cell numbers for HPV-16 detection (HPV-16 [4]; Sample # 22): 1.2 tumor cells
Threshold of tumor cell numbers for HPV-16 detection (HPV-16 [4]; Sample # 23): 1.2 tumor cells
Threshold of tumor cell numbers for HPV-16 detection (HPV-16 [4]; Sample # 24): 1.2 tumor cells
Threshold of tumor cell numbers for HPV-16 detection (HPV-16 [4]; Sample # 25): 0.3 tumor cells
Threshold of tumor cell numbers for HPV-16 detection (HPV-16 [4]; Sample # 26): 0.3 tumor cells
Threshold of tumor cell numbers for HPV-16 detection (HPV-16 [4]; Sample # 27): 1.0 tumor cells
Threshold of tumor cell numbers for HPV-16 detection (HPV-16 [4]; Sample # 28): 1.0 tumor cells
Threshold of tumor cell numbers for HPV-16 detection (HPV-16 [4]; Sample # 29): 3.0 tumor cells
Threshold of tumor cell numbers for HPV-16 detection (HPV-16 [4]; Sample # 30): 15.0 tumor cells
Threshold of tumor cell numbers for HPV-16 detection (HPV-16 [4]; Sample # 31): 0.6 tumor cells
Threshold of tumor cell numbers for HPV-16 detection (HPV-16 [4]; Sample # 32): 15.0 tumor cells
Sensitivity, 1 cell (HPV-16 [4]; [9]): 0.094
Sensitivity, 3 cells (HPV-16 [4]; [9]): 0.375
Sensitivity, 10 cells (HPV-16 [4]; [9]): 0.688
Sensitivity, 30 cells (HPV-16 [4]; [9]): 0.938*
Sensitivity, 100 cells (HPV-16 [4]; [9]): 0.969*
